Key:
[1] = biological target: human CDH17 His Tag (Sino biological, catalog number 11360-H08H) (human) (UniProt Q12864); assay: Octet BLI, antibody on AHC biosensor, antigen in solution
[2] = biological target: human CDH17 as originally expressed in cells (cell surface CDH17 on AsPC1, GP2d and other cancer cell lines) (human) (UniProt Q12864); assay: flow cytometry competition on AsPC1 cells: unlabelled HBMAB81 0.03-1800 nM against 0.97 nM HBMAB81-AF647, MFI
[3] = biological target: human CDH17 as originally expressed in cells (cell surface CDH17 on AsPC1, GP2d and other cancer cell lines) (human) (UniProt Q12864); assay: flow cytometry, labelled antibody on AsPC1 cells
[4] = biological target: T1, human CDH17 as originally expressed in cells (cell surface CDH17 on AsPC1, GP2d and other cancer cell lines) (human, UniProt Q12864 23-832); assay: cell-based or functional assay
[5] = biological target: cynomolgus CDH17-His tag (Acro Biosystems, catalog number CA7-C52H4) (cynomolgus); assay: Octet BLI, antibody on AHC biosensor, antigen in solution
[6] = biological target: T2, human CDH17 His Tag (Sino biological, catalog number 11360-H08H) (human, UniProt Q12864 23-787); assay: as above
T2 construct: Bought recombinant protein; also called hCDH17; human CDH17 protein; not shown: His tag
Procedure: (§1) The affinity between CDH17 antibodies and CDH17 antigens and homologues was determined by Octet (Octet Red 384) instrument. Anti-hIgG Fc Capture (AHC) Biosensors were selected, and the sensors were balanced with buffer solution for 10 min. Subsequently, sensors were dipped into the wells containing 1 μg/ml of CDH17 lead antibodies to load onto the probes. The excess unbound antibodies were washed off. The antigen binding was performed in the wells containing serially diluted human CDH17-His tag (Sino biological, catalog number 11360-H08H), cynomolgus CDH17-His tag (Acro Biosystems, catalog number CA7-C52H4), homologs human CDH6-His tag (Acro Biosystems, catalog number CA6-H5229) and human CDH16-His tag (Sino biological, catalog number 10915-H08H), with concentration ranging from 200 nM to 3.1 nM, for 5 min. Then probes were dipped into wells containing renewed buffer to initiate the dissociation for another 15 min.

[7] = biological target: T3, human CDH6-His tag (Acro Biosystems, catalog number CA6-H5229) (human, UniProt P55285 54-615); assay: Octet BLI, antibody on AHC biosensor, antigen 200 nM to 3.1 nM
T3 construct: Bought recombinant protein; also called hCDH6; not shown: His tag
T3 sequence (looked up): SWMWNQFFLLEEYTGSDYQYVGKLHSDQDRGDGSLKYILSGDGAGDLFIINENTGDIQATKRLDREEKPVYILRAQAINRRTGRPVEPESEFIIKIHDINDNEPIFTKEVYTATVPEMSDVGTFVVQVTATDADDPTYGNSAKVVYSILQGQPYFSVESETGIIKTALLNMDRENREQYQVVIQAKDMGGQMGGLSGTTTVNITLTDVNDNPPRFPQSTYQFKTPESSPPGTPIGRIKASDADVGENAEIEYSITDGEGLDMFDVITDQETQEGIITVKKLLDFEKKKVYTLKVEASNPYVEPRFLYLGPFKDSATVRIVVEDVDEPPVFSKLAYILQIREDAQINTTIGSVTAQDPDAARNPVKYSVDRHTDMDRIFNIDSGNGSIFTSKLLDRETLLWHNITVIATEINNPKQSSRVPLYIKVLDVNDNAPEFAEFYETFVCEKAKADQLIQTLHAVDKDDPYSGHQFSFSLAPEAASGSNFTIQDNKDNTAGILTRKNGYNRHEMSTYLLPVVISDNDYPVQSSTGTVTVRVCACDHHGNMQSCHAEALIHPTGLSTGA
Procedure: as §1

[8] = biological target: T4, human CDH16-His tag (Sino biological, catalog number 10915-H08H) (human, UniProt O75309 19-786); assay: as above
T4 construct: Bought recombinant protein; also called hCDH16; not shown: His tag
T4 sequence (looked up): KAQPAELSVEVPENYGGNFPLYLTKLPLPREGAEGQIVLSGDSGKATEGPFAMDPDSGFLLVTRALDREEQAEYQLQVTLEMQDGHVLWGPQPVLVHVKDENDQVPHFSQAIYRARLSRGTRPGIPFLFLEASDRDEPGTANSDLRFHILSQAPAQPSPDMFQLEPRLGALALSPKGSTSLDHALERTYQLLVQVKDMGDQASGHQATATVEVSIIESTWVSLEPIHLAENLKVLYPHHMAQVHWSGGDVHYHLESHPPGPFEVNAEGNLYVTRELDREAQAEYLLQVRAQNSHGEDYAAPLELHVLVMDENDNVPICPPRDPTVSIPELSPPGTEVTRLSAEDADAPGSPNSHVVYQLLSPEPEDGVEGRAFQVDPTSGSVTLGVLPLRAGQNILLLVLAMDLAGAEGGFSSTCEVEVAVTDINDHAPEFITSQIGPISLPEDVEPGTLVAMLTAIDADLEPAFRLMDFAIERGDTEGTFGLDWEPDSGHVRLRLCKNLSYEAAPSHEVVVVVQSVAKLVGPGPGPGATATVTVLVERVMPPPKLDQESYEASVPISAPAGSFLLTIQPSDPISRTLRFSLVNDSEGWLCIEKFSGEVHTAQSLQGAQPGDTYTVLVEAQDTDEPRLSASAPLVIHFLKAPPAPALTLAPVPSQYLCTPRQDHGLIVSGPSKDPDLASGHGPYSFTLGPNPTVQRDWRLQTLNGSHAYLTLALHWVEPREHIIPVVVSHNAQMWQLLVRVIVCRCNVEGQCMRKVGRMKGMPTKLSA
Procedure: as §1

[9] = biological target: T1, human CDH17 as originally expressed in …; assay: flow cytometry titration on CDH17 positive AsPC1 cells
Procedure: To determine the binding of recombinant antibody to cell surface CDH17 receptors, cells were first harvested and resuspended in cell staining buffer (BioLegend, Cat #420201) at 1.3-1.5×10⁶ cells/mL. Then, the cells were treated with human Fc receptor blocking reagent (BioLegend, Cat #422302) on the ice for 10 min. The resulting cell suspension was aliquoted into 50 μL aliquots. […] The cells were incubated on the ice for 1 hour and then washed with cell staining buffer twice. 50 μL of secondary antibody (PE conjugated goat anti-human Fc, eBioscience™, 1:250 dilution) was added to each sample to resuspend the cells. The cells were incubated on the ice for another 20 min. Cells were subsequently washed twice with cell staining buffer and resuspended in 4% PFA to fix the cells. The samples were analyzed using iQue3 to measure the median fluorescence intensity using corresponding channels.

HBMAB-81, reformatted mAb with the CDH17 binding arm from bispecific antibody BI 905771 and human IgG1 backbone
Kd [1]: 4 nM
koff [1]: 0.00136 s⁻¹
kon [1]: 340000 M⁻¹ s⁻¹
IC50 (read off the curve) [2]: 0.3 nM

HBMAB81-AF647 (HBMAB81 mAb labeled with Alexa Flour 647) (antibody)
EC80 [3]: 0.97 nM

B1: 10E11 anti-CDH17 recombinant antibody (human IgG1) (antibody, V domains shown)
VH: EVQLVQSGTEVKKPGESLKISCKDSGYRFSSYWIGWVRQMPGKGLEWMGIIYPGDSDTRYSPSFQGQVTISADKSISTAYLQWRSLKASDTAMYYCARRGWVNYFDYWGQGTLVTVSS
VL: DIQMTQSPSSVSASVGDRVTITCRASQGISNWLGWYQQKPGKAPKLLIYAASSLQSGVPSRFSGSGSGTDFTLTISSLQPEDFATYYCQQANSFPLTFGGGTKVEIKR
IC50 of indirect killing assay to evaluate the internalization in AsPC1 cells [4]: 0.08 nM
Kd [5]: 15 nM
koff [5]: 0.0012 s⁻¹
kon [5]: 80000 M⁻¹ s⁻¹
Kd [6]: 14.2 nM
koff [6]: 0.00138 s⁻¹
kon [6]: 97500 M⁻¹ s⁻¹
binding result [7]: no binding (tested: 200 nM)
binding result [8]: no binding (tested: 200 nM)
Kd [9]: 0.1 nM

B2: 14B12 anti-CDH17 recombinant antibody (human IgG1) (antibody, V domains shown)
VH: QVQLQESGPGLVKPSETLSLTCTVSGGSINTYYRSWIRQPPGKGLEWIGYIYYSGNTNYNPSLKSRVTISADTSKNQFSLNLISVTAADTAMYYCARAQYGEEAFDIWGQGTLVTVSS
VL: DIQMTQSPSSLSASVGDRVTITCRASQSITTYLNWYQQKPGKAPQLLIFAASRLQTGVPSRFSGSGSGTDFTLTISSLLPGDFATYYCQQSYNTPPTFGGGTKVEIKR
IC50 of indirect killing assay to evaluate the internalization in AsPC1 cells [4]: 0.09 nM
Kd [5]: 2.5 nM
koff [5]: 0.00016 s⁻¹
kon [5]: 620000 M⁻¹ s⁻¹
Kd [6]: 2.2 nM
koff [6]: 0.000507 s⁻¹
kon [6]: 230000 M⁻¹ s⁻¹
binding result [7]: no binding (tested: 200 nM)
binding result [8]: no binding (tested: 200 nM)
Kd [9]: 0.07 nM

— patent US20260232828A1, “LIGAND-CYTOTOXICITY DRUG CONJUGATES AND PHARMACEUTICAL USES THEREOF” (HANSOH BIO LLC, priority 2023, published 2026)
